Test results: patent US20120171699A1 (Merck KGaA, published 2012)
Each block holds one molecule with its values, some of them ahead of it.

Legend:
integrin αvβ5 on cells [1] = biological target: T1, integrin αvβ5 on cells (human, UniProt P06756 31-1048; P18084 24-799); test: live cell flow cytometry on HUVEC, 10 µg/ml antibody; relative to second layer alone
T1 construct: whole, on cells; Endogenous integrin of live cells (FACS) or of FFPE cells and xenografts (IHC)

integrin αvβ5 on cells [2] = biological target: T1, integrin αvβ5 on cells; test: live cell flow cytometry on A549, 10 µg/ml antibody; relative to second layer alone
integrin αvβ5 on cells [3] = biological target: T1, integrin αvβ5 on cells; test: live cell flow cytometry on HT-29, 10 µg/ml antibody; relative to second layer alone
integrin αvβ5 on cells [4] = biological target: T1, integrin αvβ5 on cells; test: live cell flow cytometry on M21, 10 µg/ml antibody; relative to second layer alone
integrin αvβ5 on cells [5] = biological target: T1, integrin αvβ5 on cells; test: live cell flow cytometry on M24Met, 10 µg/ml antibody; relative to second layer alone
[6] = biological target: integrin β1 chain on cells (UniProt P05556); test: live cell flow cytometry on M21-Gpiib, 10 µg/ml antibody; relative to second layer alone
Sequence of integrin β1 chain on cells (P05556 21-798 limits assumed): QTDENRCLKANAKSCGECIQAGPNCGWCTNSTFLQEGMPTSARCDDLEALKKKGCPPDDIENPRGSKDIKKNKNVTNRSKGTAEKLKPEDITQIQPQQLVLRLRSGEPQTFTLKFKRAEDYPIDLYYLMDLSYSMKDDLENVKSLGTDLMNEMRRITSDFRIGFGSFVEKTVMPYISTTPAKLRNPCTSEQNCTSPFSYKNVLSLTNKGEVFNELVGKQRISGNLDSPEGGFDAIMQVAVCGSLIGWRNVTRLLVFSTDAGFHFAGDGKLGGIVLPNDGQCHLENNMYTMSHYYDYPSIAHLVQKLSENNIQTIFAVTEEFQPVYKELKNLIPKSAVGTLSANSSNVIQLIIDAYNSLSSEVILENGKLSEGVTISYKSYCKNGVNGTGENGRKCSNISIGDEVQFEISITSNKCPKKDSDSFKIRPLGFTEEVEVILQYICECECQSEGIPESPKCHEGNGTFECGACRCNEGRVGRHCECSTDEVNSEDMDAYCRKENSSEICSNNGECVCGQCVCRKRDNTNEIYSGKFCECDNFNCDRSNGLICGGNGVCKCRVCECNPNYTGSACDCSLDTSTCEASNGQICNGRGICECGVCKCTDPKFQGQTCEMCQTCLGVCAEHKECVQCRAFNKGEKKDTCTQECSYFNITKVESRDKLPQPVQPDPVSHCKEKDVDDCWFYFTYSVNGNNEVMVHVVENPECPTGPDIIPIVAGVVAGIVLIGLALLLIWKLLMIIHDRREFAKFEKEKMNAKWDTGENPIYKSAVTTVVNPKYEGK

[7] = biological target: integrin β1 chain on cells (UniProt P05556); test: live cell flow cytometry on HUVEC, 10 µg/ml antibody; relative to second layer alone
[8] = biological target: integrin β1 chain on cells (UniProt P05556); test: live cell flow cytometry on A549, 10 µg/ml antibody; relative to second layer alone
[9] = biological target: integrin β1 chain on cells (UniProt P05556); test: live cell flow cytometry on HT-29, 10 µg/ml antibody; relative to second layer alone
[10] = biological target: integrin β1 chain on cells (UniProt P05556); test: live cell flow cytometry on M24Met, 10 µg/ml antibody; relative to second layer alone
[11] = biological target: integrin β1 chain on cells (UniProt P05556); test: live cell flow cytometry on M21-L, 10 µg/ml antibody; relative to second layer alone
[12] = biological target: integrin β1 chain on cells (UniProt P05556); test: live cell flow cytometry on M21, 10 µg/ml antibody; relative to second layer alone
integrin αvβ3 on cells [13] = biological target: T2, integrin αvβ3 on cells (human, UniProt P06756 31-1048; P05106 27-788); test: live cell flow cytometry on HUVEC, 10 µg/ml antibody; relative to second layer alone
T2 construct: whole, on cells; Endogenous integrin of live cells (FACS) or of formalin fixed paraffin embedded cells and xenografts (IHC); the cell line is named under assay; also called αvβ3 complex
Procedure: (§1) Cells in log growth were harvested using trypsin (0.5 μg/ml)/EDTA (0.2 μg/ml), washed in FACS buffer (PBS plus 0.9 mM CaCl₂; 0.5 mM MgCl₂; 0.5% w/v BSA), and incubated with anti-integrin antibodies (60 min; 4° C.; 10 μg/ml in FACS buffer). […] Cells were analyzed on a FACScan (Becton-Dickinson) and the mean intensity fluorescence (MIF) was normalized to the MIF of the negative control (cells stained with PI and secondary labeled antibody, without primary antibody).
(§2) The RabMabs were assessed in FACS compared to standard well characterized murine monoclonal antibodies.

integrin αvβ3 on cells [14] = biological target: T2, integrin αvβ3 on cells; test: live cell flow cytometry on M21, 10 µg/ml antibody; relative to second layer alone
Procedure: as §1, §2

integrin αvβ3 on cells [15] = biological target: T2, integrin αvβ3 on cells; test: live cell flow cytometry on M24Met, 10 µg/ml antibody; relative to second layer alone
Procedure: as §1, §2

[16] = biological target: T3, integrin αv chain on cells (human, UniProt P06756 31-1048); test: live cell flow cytometry on HUVEC, 10 µg/ml antibody; relative to second layer alone
T3 construct: whole, on cells; Endogenous αv of live cells (FACS) or FFPE cells and xenografts (IHC); also called Human αv; αv-integrin
Procedure: as §1, §2

[17] = biological target: recombinant human integrin αvβ6 extracellular domain (DTM-αvβ6) (human) (UniProt P18564); test: ELISA, integrin coated at 1 µg/ml, antibody serially diluted
[18] = biological target: T4, integrin αiibβ3 on M21-gpiib melanoma cells (UniProt P08514 32-1039; P05106 27-788); test: live cell flow cytometry on M21-Gpiib, 10 µg/ml antibody; relative to second layer alone
T4 construct: whole, on cells
Procedure: as §1, §2

[19] = biological target: T3, integrin αv chain on cells; test: live cell flow cytometry on M21, 10 µg/ml antibody; relative to second layer alone
Procedure: as §1, §2

[20] = biological target: T5, recombinant human integrin αvβ3 extracellular domain (DTM-αvβ3) (human, UniProt P06756 31-992); test: ELISA, integrin coated at 1 µg/ml, antibody serially diluted
T5 construct: extracellular domain; Heterodimer made in High Five insect cells with baculovirus; also called Human αvβ3 ECD
Procedure: (§3) Recombinant integrins (1 μg/ml) were coated on microtiter plates by adsorption (4° C.; 16 h) from coating buffer (150 mM NaCl; 1 mM CaCl₂; 1 mM MgCl₂; 10 μM MnCl₂; 50 mM Tris-Cl; pH 7.5). The plates were washed (wash buffer: 0.5% BSA; 0.05% Tween 20 in PBS), blocked (1 h; 4° C.; 5% BSA in PBS), and incubated with primary antibodies serially diluted in wash buffer (1 h; 37° C.). After washing, secondary detection antibody (goat-anti-rabbit HRP; 1:5000) was added (1 h; 37° C.), followed by washing and detection using tetramethyl-benzidine (100 μg/ml) in citrate-phosphate buffer (pH 5.0), development with sulphuric acid, and reading against a reagent blank at 450 nm.

[21] = biological target: T6, recombinant human integrin αvβ8 extracellular domain (DTM-αvβ8) (human, UniProt P06756 31-992); test: as above
T6 construct: extracellular domain; Heterodimer made in High Five insect cells; also called Human αvβ8 ECD
Procedure: as §3

[22] = biological target: T7, recombinant human integrin αvβ5 extracellular domain (DTM-αvβ5) (human, UniProt P06756 31-992); test: as above
T7 construct: extracellular domain; Heterodimer made in High Five insect cells; also called Human αvβ5 ECD
Procedure: as §3

[23] = biological target: T3, integrin αv chain on cells; test: live cell flow cytometry on M24Met, 10 µg/ml antibody; relative to second layer alone
Procedure: as §1, §2

[24] = biological target: T4, integrin αiibβ3 on M21-gpiib melanoma …; test: live cell flow cytometry on M21-gpiib melanoma cells
Procedure: as §1, §2

[25] = biological target: T8, full length human gpiibiiia purified from platelets (human, UniProt P08514 32-1039; P05106 27-788); test: ELISA, integrin coated at 1 µg/ml, antibody serially diluted
T8 construct: mature; Extracted from outdated human platelets with octylglucoside; also called intact αiibβ3; full length purified platelet gpiibiiia
Procedure: as §3

[26] = biological target: T7, recombinant human integrin αvβ5 …; test: ELISA, hybridoma supernatants on the recombinant αvβ5 extracellular domain (FIG. 10)
[27] = biological target: T5, recombinant human integrin αvβ3 …; test: ELISA, hybridoma supernatants on recombinant αvβ3 against αvβ5 extracellular domains (FIG. 10)
[28] = biological target: T5, recombinant human integrin αvβ3 …; test: ELISA, integrin coated at 1 µg/ml
Procedure: as §3

[29] = biological target: T8, full length human gpiibiiia purified …; test: ELISA, integrin coated at 1 µg/ml
Procedure: as §3

rMIF (integrin αvβ5 on cells [1]): 2.7
rMIF (integrin αvβ5 on cells [2]): 3.6
rMIF (integrin αvβ5 on cells [3]): 3.2
rMIF (integrin αvβ5 on cells [4]): 3.8
rMIF (integrin αvβ5 on cells [5]): 3.8
Molecule: P1F6 (antibody)

rMIF [6]: 10.8
rMIF [7]: 38.9
rMIF [8]: 7.5
rMIF [9]: 14.5
rMIF [10]: 14
rMIF [11]: 12.1
rMIF [12]: 7.2
Molecule: P4C10 (antibody)

rMIF (integrin αvβ3 on cells [13]): 10.7
rMIF (integrin αvβ3 on cells [14]): 9.1
rMIF (integrin αvβ3 on cells [15]): 4.9
B1: LM609 (antibody, V domains shown)
VH: EVQLVESGGGLVKPGRSLRLSCAASGFAFSSYDMSWVRQIPEKRLEWVAKVSSGGGSTYYLDTVQGRFTISRDNAKNTLYLQMSSLNSEDTAMYYCARHNYGSFAYWGQGTLVTVSA
VL: DIVLTQSPATLSVTPGDSVSLSCQASQSISNHLHWYQQKSHESPRLLIKYRSQSISGIPSRFSGSGSGTDFALSINSVETEDFGMYFCQQSGSWPHTFGGGTKLEIK

rMIF [16]: 28.8
IC50 [17]: 4.9 ng/mL
rMIF [18]: 1
rMIF [19]: 1.3
IC50 [20]: 4.7 ng/mL
IC50 [21]: 4.1 ng/mL
IC50 [22]: 5.6 ng/mL
rMIF [23]: 2.5
binding result [24]: no binding (tested: 10 µg/ml)
B2: EM01309 (antibody, V domains shown)
VH: QSVEESGGRLVTPGTSLTLTCTVSGIDLTSNSLSWVRQAPGKGLEWIGAISSRATTYFAAWAKGRFTISRTSTTVDLRITSLTASDTATYFCGKFNLWGQGTLVTVSS
VL: AQVLTQTPSSVSAAVGGTVTINCQASQSVASNNALAWFQQKPGQPPKLLIYYASTLASGVPSRFKGSGSGTQFTLTISDLECADAATYYCLGGYDCRGTDCNVFGGGTEVVVKG
notes: Rabbit IgG monoclonal; Hybridoma and recombinant forms are kept as one molecule; also called E3875-013-9; E3875-13-9

rMIF [19]: 9.3
rMIF [23]: 7.8
B3: 17E6 (antibody, V domains shown)
VH: QVQLQQSGAELAEPGASVKMSCKASGYTFSSFWMHWVKQRPGQGLEWIGYINPRSGYTECNEIFRDKATMTADTSSSTAYMQLSGLTSEDSAVYYCASFLGRGAMDYWGQGTSVTVSS
VL: DIQMTQTTSSLSASLGDRVIISCRASQDISNYLSWYQQKPDGTVKLLIFYTSKLHSGVPSRFSGSGSGTDYSLTISNLDQEDIATYFCQQGNTFPYTFGGGTKVEMR

rMIF (integrin αvβ3 on cells [13]): 12.4
rMIF [18]: 56
rMIF (integrin αvβ3 on cells [14]): 17.6
IC50 [20]: 1.4 ng/mL
IC50 [25]: 0.85 ng/mL
rMIF (integrin αvβ3 on cells [15]): 8.1
B4: EM22703 (antibody, V domains shown)
VH: QSVKESEGGLFKPTDTLILTCTVSGFSLSSYGVSWVRQAPGNGLEYIGSISTTGITYYASWAKSRSTITRNTNLYTVTLKMTGLTAADTATYFCARGFPGHLRKPSDIWGPGTLVTVSA
VL: AQVLTQTPSSVSAAVGGTVSISCQSSESVYADIALSWFQQKPGQPPKLLIYGASTLASGVPSRFSGSGSGTEFTLTISDVQCDAAATYYCAGDYGAGTEPNLFGGGTEVVVSG
notes: Rabbit monoclonal; Hybridoma and recombinant forms are kept as one molecule

rMIF (integrin αvβ5 on cells [1]): 33.9
EC50 [26]: 0.05 nM
rMIF [18]: 1.9
rMIF (integrin αvβ5 on cells [4]): 7.2
factor in apparent Kd, αvβ5 over αvβ3 [27]: > 100 fold
IC50 [20]: ~450 ng/mL
IC50 [25]: ~400 ng/mL
IC50 [22]: 5.6 ng/mL
rMIF (integrin αvβ5 on cells [5]): 40.1
cross-reactivity, fold in IC50 against the immunogen [28]: ~100 fold
cross-reactivity, fold in IC50 against the immunogen [29]: ~100 fold
B5: EM09902 (antibody, V domains shown)
VH: QEQLEESGGGLVQPEGSLTLTCTVSGFPLRNVWISWVRQAPGKGLEWIGCIYTGRDWPYYASWAKGRFTISKSSSTTVTLQMTSLTATDTATYFCARIVYGGAGYRLWGPGTLVTVSS
VL: ALVMTQTPPSVEAAVGGTVTINCQASQDIGSDLAWYQQKPGQPPKLLIYSASSLASGVPSRFKASGSGTQFTLTISDVQCDDAATYSCAGYKSYSDDGHGFGGGTEVVVKG
notes: Rabbit monoclonal; Hybridoma and recombinant forms are kept as one molecule; also called E3536-99-1; E3536-99-2
